Assay [1] addresses rabbit skeletal muscle actin (rabbit) (UniProt P68135). Description: actin elongation rate at the barbed end.
The target is the same in assay [2]. Description: ultrafiltration.

In general, Kd refers to a measure of binding affinity in units of concentration. Read a low Kd as higher affinity. As to “human platelet profilin (from UniProt P07737 1-140) (natural protein)”, the Kd worked out at 22.5 µM in assay [1] and 2300 nM in assay [2].

The values above are taken from publication PMC2289016.
